These results are taken from US10400230B2, “Protease variants and polynucleotides encoding same” (NOVOZYMES A/S, priority 2014, dated 2019).

A short description of experiment [1]: Determination of binding constants of inhibitor (NNIC) in Model B detergent, Suc-AAPF-pNA read-out. Format: biochemical. As to conditions: Ki of variant with the mutation relative to variant without the mutation; for Inhibitor-binding relative Kimutation, inhibitor binding in Model B: <1.0 beneficial. How it is done: (§1) Purified protease variants are pre-diluted to approximately 0.2 mg/ml in dilution buffer. 40 μl diluted protease is then mixed with 40 μl inhibitor solution (Z-Gly-Ala-NHCH(CH2C6H4pOH)C(OH)(SO3Na)—H, wherein Z is benzyloxycarbonyl) or 40 μl 4-FPBA solution in the well of a 96 well microtiter plate (Nunc F 96-MTP). […] After 10 min mixing of protease and inhibitor at room temperature, 30 μl of the mixture is transferred to a microtiter plate (Nunc U96 PP 0.5 ml) with 270 μl Model B detergent in the wells resulting in inhibitor concentrations of 0-30 μM and 4-FPBA concentrations of 0-6000 μM. Protease, inhibitor and detergent is mixed for 1 hour using magnetic bars for 1 hour at room temperature to reach equilibrium. Then 20 μl is transferred to a microtiter plate (Nunc F 96-MTP). 100 μl substrate solution is added and after 5 sec mixing absorbance at 405 nm is measured every 20 sec for 5 min on a SpectraMax Plus reader. Slope from linear regression of initial increase in absorbance at 405 nm is used for calculation of apparent binding constants.
(§2) It is assumed that protease and inhibitor react according to the equation: E+I ? EI
(§3) Where E is the protease, I is the inhibitor and EI is the protease-inhibitor complex. […] The concentration of enzyme-inhibitor in the detergent solution is then given by:
(§4) where Etot is the total protease concentration ([Etot]=[E]+[EI]), Itot is the total inhibitor concentration ([Itot]=[I]+[EI]), and Ki is the equilibrium binding constant for the reaction. The measured slopes V are given by:
(§5) where V0 is the slope without inhibitor added. To calculate apparent binding constant Ki least square fitting of measured slopes at various inhibitor concentrations to this equation is performed with Ki and V0 as variables.
The Ki for the parent protease and for each variant was calculated as described above
(§6) Having the Ki for each variant, it is possible to calculate the effect of a single mutation, if data are available for at least two variants that differ only by that mutation. In this case, the relative Ki for the mutation is calculated:
(§7) [formula] A lower Ki is desirable, as a satisfactory inhibition can be obtained at a lower inhibitor concentration, so beneficial mutations have a relative Ki<1.0 The following table show such relative Kimutation. Each row show: • a mutation (column 1: “Mutation”) • a protease variant (relative to SEQ ID NO: 2) that comprise the mutation from column 1 (column 2: “Variant with the mutation”) • another protease variant (relative to SEQ ID NO: 2), that differs from the one in column 2 only by not having the mutation in column 1 (column 3: “Variant without the mutation”) • Relative Kimutation for the mutation in column 1, in the context of the variant in column 3, measured in Model B detergent (column 4: “inhibitor binding in Model B”) • Relative Kimutation for the mutation in column 1, in the context of the variant in column 3, measured in Tris buffer at pH 8 (column 5: “inhibitor binding in Tris buffer pH 8”)
Ki were calculated as shown in Example 3. The Improvement Factor (IF) or Relative

A short description of experiment [2]: Determination of binding constants of inhibitor in Tris buffer at pH 8. In kind it is biochemical. Particulars: Ki of variant with the mutation relative to variant without the mutation. The procedure:
as §1, §2, §3, §4, §5, §6, §7

B1: S27K, S171D, S173P, G174R, S175P, G182A, L184F, Q198E, N199K, R224G, T297P: TY145 protease (SEQ ID NO 3) variant with these substitutions (protein, listed as Bacillus sp.)
chain: AVPSTQTPWGIKSIYNDQSITKTTGGKGIKVAVLDTGVYTSHLDLAGSAEQCKDFTQSNPLVDGSCTDRQGHGTHVAGTVLAHGGSNGQGVYGVAPQAKLWAYKVLGDNGSGYSDDIAAAIRHVADEASRTGSKVVINMSLGSSAKDSLIASAVDYAYGKGVLIVAAAGNDGPRPNTIGFPAGFVNAVAVAALENVQEKGTYRVADFSSRGNPATAGDYIIQEGDIEVSAPGASVESTWYTGGYNTISGTSMATPHVAGLAAKIWSANTSLSHSQLRTELQNRAKVYDIKGGIGAGPGDDYASGFGYPRVK
With B1, the “Inhibitor-binding relative Kimutation, inhibitor binding in Model B (Table 4b)” value in experiment [1] came out at 0.49.

B2: K146N, S173P, S175P, F180Y: TY145 protease (SEQ ID NO 3) variant with these substitutions (protein, listed as Bacillus sp.)
chain: AVPSTQTPWGIKSIYNDQSITKTTGGSGIKVAVLDTGVYTSHLDLAGSAEQCKDFTQSNPLVDGSCTDRQGHGTHVAGTVLAHGGSNGQGVYGVAPQAKLWAYKVLGDNGSGYSDDIAAAIRHVADEASRTGSKVVINMSLGSSANDSLIASAVDYAYGKGVLIVAAAGNSGPGPNTIGYPGGLVNAVAVAALENVQQNGTYRVADFSSRGNPATAGDYIIQERDIEVSAPGASVESTWYTGGYNTISGTSMATPHVAGLAAKIWSANTSLSHSQLRTELQNRAKVYDIKGGIGAGTGDDYASGFGYPRVK
Take B2: in experiment [1], the “Inhibitor-binding relative Kimutation, inhibitor binding in Model B” value is recorded as 0.93. In addition, in experiment [2], the “Inhibitor-binding relative Kimutation, inhibitor binding in Tris buffer pH 8” value was 0.91.

B3: S173P, S175P, F180Y, R224S: TY145 protease (SEQ ID NO 3) variant with these substitutions (protein, listed as Bacillus sp.)
chain: AVPSTQTPWGIKSIYNDQSITKTTGGSGIKVAVLDTGVYTSHLDLAGSAEQCKDFTQSNPLVDGSCTDRQGHGTHVAGTVLAHGGSNGQGVYGVAPQAKLWAYKVLGDNGSGYSDDIAAAIRHVADEASRTGSKVVINMSLGSSAKDSLIASAVDYAYGKGVLIVAAAGNSGPGPNTIGYPGGLVNAVAVAALENVQQNGTYRVADFSSRGNPATAGDYIIQESDIEVSAPGASVESTWYTGGYNTISGTSMATPHVAGLAAKIWSANTSLSHSQLRTELQNRAKVYDIKGGIGAGTGDDYASGFGYPRVK
Take B3: in experiment [1], the “Inhibitor-binding relative Kimutation, inhibitor binding in Model B” value stood at 0.50.

B4: S27K, I121V, S171N, S173P, G174R, S175P, F180Y, Q198E, R224S, T297P: TY145 protease (SEQ ID NO 3) variant with these substitutions (protein, listed as Bacillus sp.)
chain: AVPSTQTPWGIKSIYNDQSITKTTGGKGIKVAVLDTGVYTSHLDLAGSAEQCKDFTQSNPLVDGSCTDRQGHGTHVAGTVLAHGGSNGQGVYGVAPQAKLWAYKVLGDNGSGYSDDIAAAVRHVADEASRTGSKVVINMSLGSSAKDSLIASAVDYAYGKGVLIVAAAGNNGPRPNTIGYPGGLVNAVAVAALENVQENGTYRVADFSSRGNPATAGDYIIQESDIEVSAPGASVESTWYTGGYNTISGTSMATPHVAGLAAKIWSANTSLSHSQLRTELQNRAKVYDIKGGIGAGPGDDYASGFGYPRVK
Turning to B4, the “Inhibitor-binding relative Kimutation, inhibitor binding in Model B” value in experiment [1] turned out to be 0.56.

B5: S27K, S171N, S173P, G174R, S175P, F180Y, Q198E, N199K, R224G, T297P: TY145 protease (SEQ ID NO 3) variant with these substitutions (protein, listed as Bacillus sp.)
chain: AVPSTQTPWGIKSIYNDQSITKTTGGKGIKVAVLDTGVYTSHLDLAGSAEQCKDFTQSNPLVDGSCTDRQGHGTHVAGTVLAHGGSNGQGVYGVAPQAKLWAYKVLGDNGSGYSDDIAAAIRHVADEASRTGSKVVINMSLGSSAKDSLIASAVDYAYGKGVLIVAAAGNNGPRPNTIGYPGGLVNAVAVAALENVQEKGTYRVADFSSRGNPATAGDYIIQEGDIEVSAPGASVESTWYTGGYNTISGTSMATPHVAGLAAKIWSANTSLSHSQLRTELQNRAKVYDIKGGIGAGPGDDYASGFGYPRVK
On to B5, for which the “Inhibitor-binding relative Kimutation, inhibitor binding in Model B” value in experiment [1] came out at 0.74.

B6: K146F, S173P, S175P, F180Y: TY145 protease (SEQ ID NO 3) variant with these substitutions (protein, listed as Bacillus sp.)
chain: AVPSTQTPWGIKSIYNDQSITKTTGGSGIKVAVLDTGVYTSHLDLAGSAEQCKDFTQSNPLVDGSCTDRQGHGTHVAGTVLAHGGSNGQGVYGVAPQAKLWAYKVLGDNGSGYSDDIAAAIRHVADEASRTGSKVVINMSLGSSAFDSLIASAVDYAYGKGVLIVAAAGNSGPGPNTIGYPGGLVNAVAVAALENVQQNGTYRVADFSSRGNPATAGDYIIQERDIEVSAPGASVESTWYTGGYNTISGTSMATPHVAGLAAKIWSANTSLSHSQLRTELQNRAKVYDIKGGIGAGTGDDYASGFGYPRVK
With B6, in experiment [1], the “Inhibitor-binding relative Kimutation, inhibitor binding in Model B” value is 0.25. Moreover, the “Inhibitor-binding relative Kimutation, inhibitor binding in Tris buffer pH 8” value in experiment [2] was determined as 0.19.

B7: S27K, S171N, S173P, G174R, S175P, F180Y, G182A, L184F, Q198E, N199K, R224G, T297P: TY145 protease (SEQ ID NO 3) variant with these substitutions (protein, listed as Bacillus sp.)
chain: AVPSTQTPWGIKSIYNDQSITKTTGGKGIKVAVLDTGVYTSHLDLAGSAEQCKDFTQSNPLVDGSCTDRQGHGTHVAGTVLAHGGSNGQGVYGVAPQAKLWAYKVLGDNGSGYSDDIAAAIRHVADEASRTGSKVVINMSLGSSAKDSLIASAVDYAYGKGVLIVAAAGNNGPRPNTIGYPAGFVNAVAVAALENVQEKGTYRVADFSSRGNPATAGDYIIQEGDIEVSAPGASVESTWYTGGYNTISGTSMATPHVAGLAAKIWSANTSLSHSQLRTELQNRAKVYDIKGGIGAGPGDDYASGFGYPRVK
Regarding B7, in experiment [1], the “Inhibitor-binding relative Kimutation, inhibitor binding in Model B (Table 4b)” value stood at 0.69.

B8: S27K, V162T, S173P, G174K, S175P, F180Y, L184F, Q197K, Q198E, T297P: TY145 protease (SEQ ID NO 3) variant with these substitutions (protein, listed as Bacillus sp.)
chain: AVPSTQTPWGIKSIYNDQSITKTTGGKGIKVAVLDTGVYTSHLDLAGSAEQCKDFTQSNPLVDGSCTDRQGHGTHVAGTVLAHGGSNGQGVYGVAPQAKLWAYKVLGDNGSGYSDDIAAAIRHVADEASRTGSKVVINMSLGSSAKDSLIASAVDYAYGKGTLIVAAAGNSGPKPNTIGYPGGFVNAVAVAALENVKENGTYRVADFSSRGNPATAGDYIIQERDIEVSAPGASVESTWYTGGYNTISGTSMATPHVAGLAAKIWSANTSLSHSQLRTELQNRAKVYDIKGGIGAGPGDDYASGFGYPRVK
For the molecule B8, the “Inhibitor-binding relative Kimutation, inhibitor binding in Model B (Table 4b)” value in experiment [1] was 0.17.

B9: K146W, S173P, S175P, F180Y: TY145 protease (SEQ ID NO 3) variant with these substitutions (protein, listed as Bacillus sp.)
chain: AVPSTQTPWGIKSIYNDQSITKTTGGSGIKVAVLDTGVYTSHLDLAGSAEQCKDFTQSNPLVDGSCTDRQGHGTHVAGTVLAHGGSNGQGVYGVAPQAKLWAYKVLGDNGSGYSDDIAAAIRHVADEASRTGSKVVINMSLGSSAWDSLIASAVDYAYGKGVLIVAAAGNSGPGPNTIGYPGGLVNAVAVAALENVQQNGTYRVADFSSRGNPATAGDYIIQERDIEVSAPGASVESTWYTGGYNTISGTSMATPHVAGLAAKIWSANTSLSHSQLRTELQNRAKVYDIKGGIGAGTGDDYASGFGYPRVK
B9: in experiment [1], the “Inhibitor-binding relative Kimutation, inhibitor binding in Model B” value stood at 0.23. Moreover, the “Inhibitor-binding relative Kimutation, inhibitor binding in Tris buffer pH 8” value in experiment [2] is 0.16.
